Experimental data as given in PMC11014985, “TCTP regulates genotoxic stress and tumorigenicity via intercellular vesicular signaling” (EMBO Reports, 2024).

Target: DDX3-DQAD (human) (UniProt O00571)

increase of the let-7c-5p signal bound to DDX-DQAD on adding TCTP (500 nM TCTP, 300 nM DDX3-DQAD, 50 nM biotinylated let-7c-5p, non-denaturing gel), in the presence of AMP-PNP: 200%
increase of the let-7c-5p signal bound to DDX-DQAD on adding TCTP (500 nM TCTP, 300 nM DDX3-DQAD, 50 nM biotinylated let-7c-5p, non-denaturing gel), in the presence of ATP: 50%
B1: TCTP (translationally controlled tumor protein) (natural protein)
chain: MIIYRDLISHDEMFSDIYKIREIADGLCLEVEGKMVSRTEGNIDDSLIGGNASAEGPEGEGTESTVITGVDIVMNHHLQETSFTKEAYKKYIKDYMKSIKGKLEEQRPERVKPFMTGAAEQIKHILANFKNYQFFIGENMNPDGMVALLDYREDGVTPYMIFFKDGLEMEKC
